Assay: soluble on expression in E. coli; label from the status in PepcDB or PDB records

Soluble on expression in E. coli, not soluble:
MAKKIVIIGAGAGGGISLSKLRRVLKDEDVDITIIDKLGRTDFQPSYIFLSIGQKRVKDLSRDFNLLNGGHVKTVKDEVVSVDAQNRIVNTLKGKYSYDYLIMSPGPDIKKDSFEGIEATDSVWTLEDSLKLRAKIKEFNGGKILISVSSQWYKCPPVPWEMALLLDDYFRKKNMRDKVEITVAHPVSKPMEMYGPGLSDPFAKMLEKRSIGGLYGKKLLGIDASKKEAVFEDDDRLRFDLSIVAPPHSPPSFIKDNEYLRSKNGWASTNLKDFRNPKYDDIFAIGDVIAPTIQIGMAGVLAHFQADTASSAIAEDIIGYPFIDYNKNAVCIIATGSSGVFSYCDLSAKLTDPSVKFPECRMIGNDPLFRFAHDLYEVNFLSSIYGNRLEHHHHHH
MKVRILGSGTSTGVPQIGCTCPVCTSADPKDNRLRASAIVETEDARILIDCGPDFRAQVLHLPFEKIDGVLITHEHYDHVGGLDDLRPFCRFGAVPIYAEEYVARALRLRMPYCFVDHRYPGVPDIPLQEIEVGHAFSIHHTEVVPLRVMHGRLPILGYRIGRLGYITDMLTMPEESYEQLEGIDVLIMNALRIAPHPTHQNLEEALKVAERIRAKETYFIHMSHDMGLHKKVEKELPENIHLTYDGMEIIF
MARRNYQVERNKLEEKDPTWLMQKGQIQPLVSSLVVLNVEGERILARYTAKELFPTFDVEKKFEADLLKKSQTIPDLEENTGVFEHGQHIVVCRASEDLLFFVTSRIYENEVILSEVLTCWVDSLVKVLKNLPLNELNLLQHYEVLLLLVDELVDQEGVIMETDANELSSRTEFAMYSTDPRDLIPELTEQGFSHALQTAKQHLARTILK
VATLNESIEAGLEPGAVALILEAFPIEDRVRLWRALPLELHIDVLTEMRADVRFSIINALSEVELKLTLAKLDNLSLIEWADSLPESIINEALALIEKDELELYDQANEYEDDELGRWAERKIITLPFNITVGTAKQLMERYSYDTPQQVYLINRNKQFRGAVNYYEILRSDSGVRLKTLEIETVTVLDSKMTLPEAVEALEHSALPALPVTDADQTLIGEVDWQFALSTQREIYEARLMAGTGMDEGDDLFAPVLKSSQKRGV
MGSDKIHHHHHHMSSIVLAVGNGKTLFGGSGVAPDADLVRFVDPESPIINAFDLCALRGDGIFEATTVWRGFPVSLENHLKRLANSARLVDMPEPNIPALTRAVQLVIDQYDDPEPGPMLRIIVSRGLDPDTGVGKAADRTPTVYIFLDAKGTLHSLEPITMASMTRGYPSDITARAPWLLNGAKTLSYAFNCAVHRECARRGVGDAILFTEDGYTMECPNSSIVARYGDTFVTPDPRIGILNGTSQREMFAWALEEGKKAEYRKLPIAELREADSLYMTHGGWSIPISAIDGRALAVDAAEIQAINDAIHSGRTHEDALKIGPTGDYE
MGSDKIHHHHHHMMFVVNRHINYTDICVAKCPLCAFNNREGYLLSPEEILRKVREVDGITEVHIVGGHNPEVGVEYFEEVFRRIKREKPEVVIKALTATEVYYYAKKEKMSIREFLSRLKDAGLQAMPGGGAEILVDSVRRKISPNKCSSDEWLRVMKIAHELGIKSNATMLFGHVEEIRHRAIHLYRLRKLQEKTGGFVSFIPLVYHPENNPLGKIVREKTNPVDILKTIAVSRIALDNFRSVRAYWVMLGEKLTEVALRFGANDIDGTVVEEKVTHAAGAETPAGLTVERLVEICRSAGKRVGQRDTFCNILKWYA
MTPHVMKRDGCKVPFKSERIKEAILRAAKAAEVDDADYCATVAAVVSEQMQGRNQVDINEIQTAVENQLMSGPYKQLARAYIEYRHDRDIEREKRGRLNQEIRGLVEQTNASLLNENANKDSKVIPTQRDLLAGIVAKHYARQHLLPRDVVQAHERGDIHYHDLDYSPFFPMFNCMLIDLKGMLTQGFKMGNAEIEPPKSISTATAVTAQIIAQVASHIYGGTTINRIDEVLAPFVTASYNKHRKTAEEWNIPDAEGYANSRTIKECYDAFQSLEYEVNTLHTANGQTPFVTFGFGLGTSWESRLIQESILRNRIAGLGKNRKTAVFPKLVFAIRDGLNHKKGDPNYDIKQLALECASKRMYPDILNYDQVVKVTGSFKTPMGCRSFLGVWENENGEQIHDGRNNLGVISLNLPRIALEAKGDEATFWKLLDERLVLARKALMTRIARLEGVKARVAPILYMEGACGVRLNADDDISEIFKNGRASISLGYIGIHETINALFGGEHVYDNEQLRAKGIAIVERLRQAVDQWKEETGYGFSLYSTPSENLCDRFCRLDTAEFGVVPGVTDKGYYTNSFHLDVEKKVNPYDKIDFEAPYPPLANGGFICYGEYPNIQHNLKALEDVWDYSYQHVPYYGTNTPIDECYECGFTGEFECTSKGFTCPKCGNHDASRVSVTRRVCGYLGSPDARPFNAGKQEEVKRRVKHLGNGQIG
MGSDKIHHHHHHMSAISYLHLLMLRQNNSMTRHNQTLFNLPLFNQHQFNPPQLNQVAIDQLQQGQAKRLSLLWLWLQQDETRLAALMVCQKVMQQQGITDWLISAGFIRNLIWDNLHSMTSQPLNDIDVIYWRDNNPSSAEDQAIEALLVKQIALPWSVKNQARMHLRNGDMPYISCADAMSFWPEKQTAIGVKLASIDDLTSAEFQLQVTSVFGLSCLFDLSLSPNPKRDKAIFNHRVSQKGWLIHYSKLLVTE
MAHHHHHHMAWCDASFSVIYGNEELVVVNKPHDVPMDGEACPVTVEKWAWAYLAKGGCADNNAGGGVEKEDDTTRTAGRRRGEKKMVKFVHQLDYATSGVLCVAFSREMAARLAHCFEMRTTRKAYLAVLFGMMPTTSAMQKKLDTDTGVDFLRGSPYASHVRRVSMDDVPGVCFIRKCVIEASGHEEGENADCCATLLEVNLPVGYDTTDHEGFRMTVNGRDARGSVTYLSVLQRGYMTHPTSGCPVPVTKVALFPRTGRRHQLRVHCHAIGFPILGDVTYARIPTPRVAPKVTGAEEVATVGATESINAPNEIGAIEAWQRMMLHAWRLSFPVSVEPLRSGSERYMQKKKRRRETLGLAVAGGDDTTVWTHFETEDPFQLVRPE
MGSDKIHHHHHHEQDNSVSEKQVDVVYNDPRDPFEGFNRAMWDLNYNVLDRYIYRPVAHTYKDYVPSPVKSGLHNFVRNLEEPNALVNNTLQGKFGWAANAGGRFVVNSTIGLLGVVDVADMMGMHRKQDDFNEVLGYYGVPNGPYFMAPFFGPYVTRELASDWVDGLYFPLSELTMWQSVVKWGIKSLHVRTEAIDQERLLDNALDPYTFVKDAYLQHMDYKVYDGNVPSNQEDDELLDEYMQELE
VAVVLDRQGKVQTVNGLFETELSYSQSEIAGRSLSEMSPPELSGDTHQKRALAAIRDGKHFSGTLRLVSKTGARVWLRTVVVPFKNETGGIEQITLYSSVLT
MCKLAGPQHSEIGFPISTDNASWRGPNIEAGGKSAYNNVQVGE
MSLDAHAQSYYRDCYRGAANMVRAMQKRANTLLSAGQTIADRQHKFIRSGRLRDKQPLTMTLIAQEAGLNKSTISRALSNCRIRLDSGIFPAEHFLARPLSDDTPDRTRDQVLQRLRLLIETENPRSPMSDQVLARQLGKARLSISRRTVAKYRQFLQIPGAYERKRNTEGHHHHHH
MPKKRTPYETWRKNIRPIIWKRDNKQCIRCKKTVLLSECHIDHIISGLHGDNRLQNLRTLCRRCHVLRSDRLHRGMIAKALKDGVITADWRQYVWEEESLLKRLEHHHHHH
MYSISFQEDSLLPRERLAKEGVEALSNQELLAILLRTGTRQASVFEIAQKVLNNLSSLTDLKKMTLQELQSLSGIGRVKAIELQAMIELGHRIHKHETLEMESILSSQKLAKKMQQELGDKKQEHLVALYLNTQNQIIHQQTIFIGSVTRSIAEPREILHYAIKHMATSLILVHNHPSGAVAPSQNDDHVTKLVKEACELMGIVLLDHLIVSHSNYFSYREKTDLI
RKLATAAKVSAMGSLNDLFESVSDRLRDSGRLIVVDEAENLPLRALEIVRRLHDETGCGLVLSGMPRLVANLRGKHGELVQLYSRVSVALNLGESLPDDELFEIAKAALPDAVKHLLPDSVQALITVIGFNETLELVRLMGGTTYPLRQGYTKNSQSRVAYLEEIIGSEAAGRLVEAMAPCNLFIPRCETALYELRNRKIRSQFDRQTAGGTPAYEAVNDLALAHRLSDRHVWRILKQADKEAEQENLF
MGSDKIHHHHHHMKKLIAIDLDGTLLNEKSTISEENTESLQRAQEAGMEVVIATGRAYFDVIDLLKPTGMHPWVIGANGATIHDPTGRRLLSIPLEHKQAIEILHWLEGKHFYYEVFSDEAIFTPQNGRELLAIEMDRLVSANPQTDLGTLSQAAAKQFSQTGFSYVSSYRDLLDTEVNIYNILAFSFDDQKLAKGWDRFKQTDNVTLVTSAEHNFELEHPLASKGNALTWLAKHLHIPLEHTVAIGDSMNDYSMITIAGYSIAMGNARAEIKQISHEVTLSNYEHGVSHSIERLLAAKRLGQN

Soluble on expression in E. coli, soluble:
NNNRAPKEPTDPVTLIFTDIESSTALWAAHPDLMPDAVAAHHRMVRSLIGRYKCYEVKTVGDSFMIASKSPFAAVQLAQELQLCFLHHDWGTNALDDSYREFEEQRAEGECEYTPPTAHMDPEVYSRLWNGLRVRVGIHTGLCDIRHDEVTKGYDYYGRTPNMAARTESVANGGQVLMTHAAYMSLSAEDRKQIDVTALGDVALRGVSDPVKMYQLNTVPSRNFAALRLDREYFD
PLGSQTTHELTIPNNLIGCIIGRQGANINEIRQMSGAQIKIANPVEGSSGRQVTITGSAASISLAQYLINARLSSEKGMGCS
MTYSIVAISGSPSRNSTTAKLAEYALAHVLARSDSQGRHIHVIDLDPKALLRGDLSNAKLKEAVDATCNADGLIVATPIYKASYTGLLKAFLDILPQFALAGKAALPLATGGSPAHVLALDYGLRPVLHSMGVRHVVQSFFLVQSQFSVVDGKLAVEDDVASQLNNAIDHFRLSLSSEPSTRHLGHPRPSLDATRAA
MSIVNILSVNVLNNPAKFSDPYKFEITFECLEPLKSDLEWKLTYVGSATSQSYDQILDTLLVGPIPIGINKFVFEADPPNIDLLPQLSDVLGVTVILLSCAYEDNEFVRVGYYVNNEMEGLNLQEMDDAEIKKVKVDISKVWRSILAEKPRVTRFNIQWDN
MSLTEPRIVATYHIASDAERIEQRALALAIEQSVECPLEAIGDPAIVANIVGRVEDVAELQPGRYAVRIGLAAATAPAEPGQLLNMLFGNSSIQPDIALADVELPAHYLTAFGGPRVGLAGIRTLTGAQSRALTASALKPQGLSPAALASIAHQLALGGVDLIKDDHGLADQAFSPFAERAAAVGKAVREANAARGGRTLYAPNISGTLDDMRRQLGVIRDEGIGAVLVAPMIVGVSNFHAIVKEAAGLVVVAHPAMAGAAKIAAPLLLGRLFRLFGADATVFPNYGGRFAYSTASCLALAQAARDPFGKLNACIPTPAGGIMLQRVNELLRFYGQDVMLLIGGSLLASRERLTEQASRFVNKVADYGQREGHHHHHH
MSLAHEMIGTQIVTERLVALLESGTEKVLLIDSRPFVEYNTSHILEAININCSKLMKRRLQQDKVLITELIQHSAKHKVDIDCSQKVVVYDQSSQDVASLSSDCFLTVLLGKLEKSFNSVHLLAGGFAEFSRCFPGLCEGKSTLVPTCISQPCLPVANIGPTRILPNLYLGCQRDVLNKELMQQNGIGYVLNASNTCPKPDFIPESHFLRVPVNDSFCEKILPWLDKSVDFIEKAKASNGCVLVHCLAGISRSATIAIAYIMKRMDMSLDEAYRFVKEKRPTISPNFNFLGQLLDYEKKIKNQTEGHHHHHH

— the DeepSol protein solubility set
